{
  "source": "patent US20170291930",
  "proteins": {"B1": {"name": "purified recombinant Sap2 (C. albicans secreted aspartic protease 2) (protein)", "chain": "QAVPVTLHNEQVTYAADITVGSNNQKLNVIVDTGSSDLWVPDVNVDCQVTYSDQTADFCKQKGTYDPSGSSASQDLNTPFKIGYGDGSSSQGTLYKDTVGFGGVSIKNQVLADVDSTSIDQGILGVGYKTNEAGGSYDNVPVTLKKQGVIAKNAYSLYLNSPDAATGQIIFGGVDNAKYSGSLIALPVTSDRELRISLGSVEVSGKTINTDNVDVLLDSGTTITYLQQDLADQIIKAFNGKLTQDSNGNSFYEVDCNLSGDVVFNFSKNAKISVPASEFAASLQGDDGQPYDKCQLLFDVNDANILGDNFLRSAYIVYDLDDNEISLAQVKYTSASSISALT"}},
  "key": {"[1]": {"target": "T1, Hst-5 synthetic peptide K17R", "T1 chain": "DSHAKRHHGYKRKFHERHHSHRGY"}, "[2]": {"target": "T2, Hst-5 synthetic peptide K17L", "T2 chain": "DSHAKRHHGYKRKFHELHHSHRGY"}},
  "data": [
    {"protein": "B1", "values": [
      {"measurement": "cleavage at the C-terminal side of residue 17 by Sap2 (mass spectrometry)", "setting": "[1]", "value": "Substitutions at K17 did lead to a significant decrease in signals from fragments formed by cleavage at the C-terminal side of K17, however, unlike Sap9, Sap2 still cleaved K17L and K17R at this site"},
      {"measurement": "cleavage at the C-terminal side of residue 17 by Sap2 (mass spectrometry)", "setting": "[2]", "value": "Substitutions at K17 did lead to a significant decrease in signals from fragments formed by cleavage at the C-terminal side of K17, however, unlike Sap9, Sap2 still cleaved K17L and K17R at this site"}
    ]}
  ]
}
